Test results: patent publication US7906628B2, “Targeting proteins to deliver therapeutic or diagnostic reagents” (The Board of Regents, The University of Texas System, priority 2002, dated 2011)

Legend:
[1] = test system: human umbilical endothelial cells (HUVEC); experiment: Endothelial tube assay; format: cell-based; details: supernatant from plasmid-transfected 293T cells; FIGS. 2A-2D
Procedure: Endothelial tube assay: Matrigel (Collaborative Biomolecules, Bedford, Mass.) was added (50 μl) to each well of a 96-well plate and allowed to polymerize. A suspension of 5,000 human umbilical endothelial cells (HUVEC) in EGM-2 medium without antibiotic was passed into each well coated with matrigel. The cells were treated with supernatants collected from different plasmid (endostatin, endostatin-CD, and CD) transfected 293T cells. All assays were performed in triplicate. Cell were incubated for 12-24 hr at 37° C. and viewed using a microscope. The cells were then photographed. Five fields were viewed, and tubes were counted and averaged.

HUVECs = experiment: Migration assay (VEGF-induced chemotaxis, Boyden chamber); format: cell-based, human; details: supernatant from plasmid-transfected 293T cells; 10 ng/ml VEGF as chemotactant; FIGS. 2E-2H
Procedure: After trypsinizing, washing, and diluting cells in M199 medium containing 0.5% FBS, 10,000 cells were seeded on the upper chamber wells, together with supernatant collected from 293T transfected with different plasmid (endostatin, endostatin-CD, and CD). M199 medium containing 2% FBS plus 10 ng/ml VEGF was placed in the lower chamber as a chemotactant. The cell-containing compartments were separated from the chemotactant with polycarbonate filter of 8 um pore size. The chamber was incubated at 37° C. for 6-8 hr. After discarding the non-migrated cells and washing the upper wells with PBS, the filters were scraped with a plastic blade, fixed in 4% formaldehyde in PBS, stained with DAPI fluorescent stain and placed on a glass slide. By using a fluorescent high power field, several independent homogenous images were recorded. Five fields were viewed, and […] were counted and averaged. All assays were performed in triplicate.

B1: endostatin: endogenous angiogenesis inhibitor, 18 KD, used as comparator (protein, listed as Homo sapiens)
chain: IVNLKDELLFPSWEALFSGSEGPLKPGARIFSFDGKDVLRHPTRPQKSVWHGSDPNGRRLTESYCETWRTEAPSATGQASSLLGGRLLGQSAASSHHAYIVL
- HUVEC cell tube formation [1]: inhibitory effect
- HUVEC cell migration (HUVECs): inhibitory effect
